Source: patent publication US20150118710
Values joined by “and” are separate entries in the source; they are usually repeats but may differ in a detail not shown here. Identical values can stand only once.

Columns and labels:
[1] = tested on: Insulin glargine single chain precursor (Fglargine), glargine pro-peptide
[2] = molecular target: Insulin glargine single chain precursor (Fglargine), glargine pro-peptide; remark: listed apart in the source

| Molecule | % conversion achieved (HPLC peak areas) [1] [%] | % yield increased (two chain glargine), clone without co-expression [1] | secretion of two chain glargine (mass analysis of secreted product) [1] | % conversion achieved (HPLC peak areas), Clone #2F6, GAP promoter [2] [%] | % conversion achieved (HPLC peak areas), Clone #3C1, GAP promoter [2] [%] | % conversion achieved (HPLC peak areas), Clone #4B7, GAP promoter [2] [%] | % conversion achieved (HPLC peak areas), Clone #5C5, GAP promoter [2] [%] | % conversion achieved (HPLC peak areas), Clone #IB4, GAP promoter [2] [%] | % conversion achieved (HPLC peak areas), Clone# 6D6, GAP promoter [2] [%] | % yield increased (two chain glargine), FLD1 promoter [2] [%] | % yield increased (two chain glargine), GAP promoter [2] [%] |
| --- | --- | --- | --- | --- | --- | --- | --- | --- | --- | --- | --- |
| endogenous Kex2p (Kexin endoprotease) of Pichia pastoris | 0 | 5% and 0% | it is not possible to secrete two chain glargine directly into the medium using endogenous Kex2p alone | – | – | – | – | – | – | – | – |
| ΔKex2p, 660 amino acid functional domain of Kexin endoprotease (Kex2p) from Pichia pastoris (protein) MYLPALRLACWILIGLRSTEALETSEREIFALKLDKSWLPTFLETFQDKFRYERQINGLDDYHVFSHSKNEEFQLENFKVKTLLTRDNANLHSELISHNVDEVHMLRPSHYLHKRAPVVMDKSEELREQIAKDFDIDDPLFAKQWHLFNPRYPGHDVNVSQVWYDGITGKGVVTAIVDDGLDMDSKDLKESFCEEGSWDFNANTRLPKPRLRDDHHGTRCAAEIAAKKGNKYCGVGVAYDSKVSGIRILSDKITPEDEALSLIYGLDVNDIYSCSWGPADNGITMQGPSSLVKEAMLKGVQDGRKGKGALYVFASGNGASSGDNCNFDGYTNSIYSITVGAIDIKGLHPPYAEACSAVMTVTYSSGSGEHIHTTDINDKCSDTHGGTSAAAPLAAGLYSLVYQANPDLTWRDIQWLTVLTAVPVNEQEPGWQKTAIGKMYSHKYGYGKIDAYALVNLARSPDFPYLKPQSWIYGTEVHESLNTSEANGVLTSKYELTQEAKDLMNFEKIEHVTVTVDIKAAERGKVLVELISPSGVVSELAPYRRMDKDKEGFPNWTFMSVAHWGEDGLGEWILKITNKEGNSVVLNSWQIKFFGESQDPEKAEKFSLTKKYDEILVNPPSSSTSTTVDTSSTEATFSSSSVSEASATETDVKETSTTGD | – | – | – | 9.44 | 31.4 | 33.6 | 45 | 13 | 59.5 | > 93 | 60 |
